For the test, the target named is T1, human full-length Notch3 with C-terminal FLAG tag, stably expressed on 293 FlpIn (TREx) cells (human, UniProt Q9UM47 40-2321).
T1 construct: whole, on cells; made by the same strategy as the Notch1 line; also called 293-N3; hN3
The test can be described thus: FACS, phage scFv.

B1: hN1S3-147 (scFv, V domains shown)
VH: QVQLVQSGPEVKKPGTSVKVSCKASGFTFTSSAVQWVRQARGQRLEWIGWIVVGSGNTNYAQKFQERVTITRDMSTSTAYMELSSLRSEDTAVYYCVADTVYWGKGTLVTVSS
VL: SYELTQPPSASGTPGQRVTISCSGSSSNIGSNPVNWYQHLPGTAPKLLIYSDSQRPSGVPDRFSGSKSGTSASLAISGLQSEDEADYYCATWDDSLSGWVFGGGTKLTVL
notes: phage scFv
Regarding B1, the binding result is given as “binds”.

B2: hN1S3-133 (scFv, V domains shown)
VH: QVQLVQSGPEVKKPGTSVKVSCKASGFTFTSSAVQWVRQARGQRLEWIGWIVVGSGNTNYAQKFQERVTITRDMSTSTAYMELSSLRSEDTAVYYCVADTVYWGQGTLVTVSS
VL: QSVLTQPPSVSEAPRQRVTISCSGSSSNIGNNAVNWYQQLPGEAPKLLIYYDDLLPSGVSDRFSGSKSGSSASLAISGLQAEDEADYYCATWDDSLNAWVFGGGTKVTVL
notes: phage scFv
Consider B2, for which the binding result is “binds”.

B3: hN1S3-082 (scFv, V domains shown)
VH: QVQLVQSGPEVKKPGTSVKVSCKASGFTFTSSAVQWVRQARGQRLEWIGWIVVGSGNTNYAQKFQERVTITRDMSTSTAYMELSSLRSEDTAVYYCVADTVYWGRGTLVTVSS
VL: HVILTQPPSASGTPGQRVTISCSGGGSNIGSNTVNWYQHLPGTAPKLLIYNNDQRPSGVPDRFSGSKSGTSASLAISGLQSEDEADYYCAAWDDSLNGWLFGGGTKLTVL
notes: phage scFv
For the molecule B3, the binding result is “binds”.

B4: N1wc130 (scFv, V domains shown)
VH: QVQLQQSGAEVKKPGASVKVSCKASGYNFTGYYMHWVRQAPGQGLEWMGWINPNSGGTNYAQKFQGRVTMTRDTSISTAYMELSRLRPDDTAVYYCATDSFDYWGKGTMVTVSS
VL: QAVLTQPSSVSGAPGQRVTISCTGTGSNIGAGYDVHWYQQLPGTAPKLLIYANTNRPSGVPDRFSGSKSGTSASLAITGLQAEDEADYYCQSYDSSLSGSVFGGGTKVTVL
notes: phage scFv
With B4, the binding result is reported as “binds”.

B5: hN1S3-141 (scFv, V domains shown)
VH: QVQLVQSGAEVKKPGASVKVSCKASGYNFTGYYIHWVRQAPGQGLEWMGWINPNSGGTNYAQKFQGRVIMTRDTSISTAYMELSRLRSDDTAVYYCATDSFDYWGRGTLVTVSS
VL: QSVLTQPPSASGTPGQRVTISCSGSYSNIGSNYVYWYQQFPGTAPKLLIYTNNQRPSGVPDRFSGSKSGSSASLAISGLRSEDEADYYCAAWDDSVGVLLFGGGTKLTVL
notes: phage scFv
Consider B5, for which the binding result is given as “binds”.

B6: N1wc225 (scFv, V domains shown)
VH: QVQLQQSGAEVKKPGASVKVSCKASGYNFTGYYMHWVRQAPGQGLEWMGWINPNSGGTNYAQKFQGRVTMTRDTSISTAYMELSRLRSDDTAVYYCATDSFDYWGRGTMVTVSS
VL: QSVVTQPPSVSGAPGQRVTISCTGSSSNIGAGYDVHWYQQLPGTAPKLLIYGNSNRPSGVPDRFSGSKSGTSASLAITGLQAEDEADYYCQSYDSSLSGSVFGGGTKLTVL
As to B6, the binding result is on record as “binds”.

B7: hN1S3-035 (scFv, V domains shown)
VH: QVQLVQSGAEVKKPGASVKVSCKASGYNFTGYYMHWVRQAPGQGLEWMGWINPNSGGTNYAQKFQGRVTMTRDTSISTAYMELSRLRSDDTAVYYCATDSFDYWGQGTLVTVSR
VL: QAVLTQPSSVSGAPGQRVTISCTGSSSNIGAGYDVHWYQQLPGTAPKLLIYGNSNRPSGVPDRFSGSKSGTSASLAITGLQAEDEADYYCQSYDSSLSGSVFGGGTKVTVL
notes: phage scFv
On to B7, for which the binding result is given as “binds”.

B8: hN1S3-077 (scFv, V domains shown)
VH: EVQLVQSGAEVKKPGAPVKVSCKTSGYGFSNYYMHWVRQAPGQGLEWLGMINPSDGSQHFAQRFRDRVSFTSDTSTSAVYMELAGLRSDDTAVYYCAREKANSMYFDYWGQGTLVTVSS
VL: QSVVTQPPSLSAAPGQRVTISCSGSHSNIGNFYVSWYQQVPGAAPKLLIYDNNERPSGIPDRFSGSKSGTSATLDITGLQTGDEADYYCSTWDRSLSASVFGSGTKLTVL
notes: phage scFv
As for B8, the binding result is given as “binds”.

B9: hN1S3-083 (scFv, V domains shown)
VH: QVQLQQSGPGLVKPSQTLSLTCAISGDSISSSSATWNWIRQSPSRGLEWLGRTYYRSKWYNDYAVSVKSRITIDPDTSKNQFSLQLNSVTPEDTAVYYCARQLGGRIEFWGQGTLVTVSS
VL: QSVLTQPPSASGSPGRSVTISCTGTSRDVGAYNYVSWYQQHPGEAPKLLISEVTKRPSGVPARFSASKSGNTASLTISGLQAEDEGDYYCSSYAGSDSWVFGGGTKLTVL
notes: phage scFv
For B9, the binding result is listed as “binds”.
